In patent publication US20170066831A1 (Janssen / Centocor, published 2017):

Key:
[1] = target: T1, A80E; test: SPR, ProteOn XPR36, 25 C; mAb captured on anti-Fc surface, ST2L-D1D2 (HH-ST2L) variant injected; 1:1 model
T1 construct: also called HH-ST2L (ST2L-D1D2) variant A80E
T1 receptor fragment (Domains I and II): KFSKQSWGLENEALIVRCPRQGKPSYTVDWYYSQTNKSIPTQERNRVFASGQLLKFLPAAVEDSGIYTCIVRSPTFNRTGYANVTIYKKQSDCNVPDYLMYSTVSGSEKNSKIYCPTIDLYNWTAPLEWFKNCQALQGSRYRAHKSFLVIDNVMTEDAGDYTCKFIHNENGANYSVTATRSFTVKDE
Procedure: (§1) Binding studies were performed using the ProteOn XPR36 Protein Interaction Array system (Bio-Rad) (Bravman T, et al. Anal Biochem 358:281-288, 2006). […] Individual anti-ST2L mAb was then captured by flowing (1 μg/mL) antibody solution prepared in PBS containing 0.5% Nonidet P-40 and 0.5% Na-deoxycholate). The signal in the surfaces reached ˜250 resonance units (RU, 1 RU=1 pg protein/mm²) in the anti-Fc-coated surfaces, confirming that these antibodies specifically capture anti-ST2L mAbs. After 90° rotation of the fluid system, wild type of ST2L-D1D2 or variant proteins (0.5 mg/mL in PBS containing 0.5% Nonidet P-40 and 0.5% Na-deoxycholate) was injected in the parallel flow channels. All of these assays were performed at 25° C. The ST2L-D1D2-dependent signals on the surfaces were obtained by double referencing, subtracting the response observed on surfaces immobilizing the antibodies alone, and the signal observed injecting the vehicle alone (which allows correction for binding-independent responses). The resulting sensorgrams were fitted by the simplest 1:1 interaction model (ProteOn analysis software), to obtain the corresponding association and dissociation rate constants (kₐ and kd).

[2] = target: T2, human ST2L extracellular domain with C-terminal His6 tag (human, UniProt Q01638 19-328); test: SPR, mAb captured, ST2L-ECD in solution
T2 construct: also called huST2L-ECD; ST2L-ECD
T2 sequence: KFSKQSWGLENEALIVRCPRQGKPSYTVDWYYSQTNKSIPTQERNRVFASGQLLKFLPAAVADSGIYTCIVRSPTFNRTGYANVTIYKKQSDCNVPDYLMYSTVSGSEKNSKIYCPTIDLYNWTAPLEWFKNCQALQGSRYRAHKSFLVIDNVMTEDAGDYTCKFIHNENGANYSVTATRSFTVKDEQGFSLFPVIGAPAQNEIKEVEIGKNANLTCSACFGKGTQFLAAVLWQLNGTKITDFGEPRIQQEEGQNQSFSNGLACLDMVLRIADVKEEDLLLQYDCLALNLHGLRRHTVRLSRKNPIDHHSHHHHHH

[3] = target: T3, cynomolgus (Macaca fascicularis) ST2L extracellular domain with C-terminal His6 tag (Macaca fascicularis (cynomolgus), UniProt Q01638 19-321 (human entry)); test: SPR, mAb captured, ST2L-ECD in solution
T3 construct: also called cyno ST2L-ECD; cynoST2L-ECD
T3 chain: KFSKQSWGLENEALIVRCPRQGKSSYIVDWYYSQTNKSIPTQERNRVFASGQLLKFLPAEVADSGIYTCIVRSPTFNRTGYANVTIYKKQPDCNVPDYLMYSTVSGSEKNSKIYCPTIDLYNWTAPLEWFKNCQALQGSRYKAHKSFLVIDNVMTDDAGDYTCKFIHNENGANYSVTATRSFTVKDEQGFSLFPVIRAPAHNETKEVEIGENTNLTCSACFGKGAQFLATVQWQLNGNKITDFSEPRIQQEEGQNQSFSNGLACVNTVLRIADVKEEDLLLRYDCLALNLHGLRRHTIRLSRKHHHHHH

[4] = target: T2, human ST2L extracellular domain with …; test: RLB ELISA: biotinylated IL-33 on coated huST2L-ECD, antibody titrated
In short: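 Plates coated 16 h at 4 °C with His6-tagged ST2L-ECD (human aa 19-328, 4 μg/ml; cyno aa 19-321, 2 μg/ml). Titrated mAbs applied 1 h at RT, then biotinylated IL-33 added 30 min (human 112-270 at 100 ng/ml final; cyno 112-269 at 200 ng/ml final). Bound ligand detected with streptavidin-HRP/TMB, OD450.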

[5] = target: T4, HH-ST2L (human ST2L Domains I and II), wild type (human, UniProt Q01638 19-205); test: ProteOn SPR, mAb captured by anti-Fc, ST2L-D1D2 injected
T4 construct: also called ST2L-D1D2
T4 sequence: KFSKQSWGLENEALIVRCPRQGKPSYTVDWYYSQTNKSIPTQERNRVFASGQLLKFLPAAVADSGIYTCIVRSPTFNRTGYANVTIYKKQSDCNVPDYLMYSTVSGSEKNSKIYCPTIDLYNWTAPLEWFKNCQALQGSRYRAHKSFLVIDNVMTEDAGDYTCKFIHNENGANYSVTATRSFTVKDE
Procedure: as §1
Residue numbering is according to full length human ST2L of SEQ ID NO: 1.

Kd [1]: 11 pM | koff [1]: 0.000127 s⁻¹ | kon [1]: 1.15e+07 M⁻¹ s⁻¹ | Kd [2]: 11 pM | koff [2]: 6.76e-05 s⁻¹ | kon [2]: 5.97e+06 M⁻¹ s⁻¹ | Kd [3]: 5 pM | koff [3]: 7.02e-05 s⁻¹ | kon [3]: 1.39e+07 M⁻¹ s⁻¹ | IC50 [4]: 0.47 µg/mL | Kd [5]: ~10.8 pM
B1: STLM208 (antibody, V domains shown)
VH: EVQLLESGGGLVQPGGSLRLSCAASGFTFSIYDMIWVRQAPGKGLEWVSSIRGEGGGTYYADSVKGRFTISRDNSKNTLYLQMNSLRAEDTAVYYCARDPWSTEGSFFVLDYWGQGTLVTVSS
VL: EIVLTQSPATLSLSPGERATLSCRASQSVDDDLAWYQQKPGQAPRLLIYDASNRATGIPARFSGSGSGTDFTLTISSLEPEDFAVYYCQQYITAPLTFGQGTKVEIK
notes: frameworks VH3-23 / Vk-L6
